# Measured values reported in article PMC3616122, “Crystal Structure of KLHL3 in Complex with Cullin3” (PLoS ONE, 2013).
# Positions count from the first letter of the chain named. Names and notes keep the numbering of the source.
# B1: KLHL3^BTB-BACK, human KLHL3 residues 27-276, wild type (domain or fragment, UniProt Q9UH77 27-276, looked up)
# chain: TVNPAHMGKAFKVMNELRSKQLLCDVMIVAEDVEIEAHRVVLAACSPYFCAMFTGDMSESKAKKIEIKDVDGQTLSKLIDYIYTAEIEVTEENVQVLLPAASLLQLMDVRQNCCDFLQSQLHPTNCLGIRAFADVHTCTDLLQQANAYAEQHFPEVMLGEEFLSLSLDQVCSLISSDKLTVSSEEKVFEAVISWINYEKETRLEHMAKLMEHVRLPLLPRDYLVQTVEEEALIKNNNTCKDFLIEAMKYH
# notes: KLHL3, human, residues 27-276 (BTB and BACK domains), without the surface entropy reduction mutations; PDB 4HXI holds the same limits with K87A/K89A/K90A; Removal of the His tag is told only for Cul3^NTD; also called wild-type KLHL3^BTB-BACK; source: E. coli BL21 DE3 Codon+, purified (NiNTA, Superdex S75 SEC)
# B2: KLHL3^BTB-BACK C164F (PHAII mutation) (domain or fragment, human, UniProt Q9UH77 27-276, looked up)
# chain: B1 chain with C138F
# notes: KLHL3, human, residues 27-276, PHAII patient mutation C164F introduced into the wild-type KLHL3^BTB-BACK plasmid; PDB 4HXI holds the same limits with K87A/K89A/K90A and without C164F; source: E. coli BL21 DE3 Codon+, purified (NiNTA, Superdex S75 SEC)
# B3: KLHL3^BTB-BACK, human KLHL3 residues 27-276, surface entropy reduction version K87A/K89A/K90A used in crystallization (domain or fragment, UniProt Q9UH77 27-276, looked up)
# chain: B1 chain with K61A, K63A, K64A
# notes: KLHL3, human, residues 27-276 (BTB and BACK domains) with three lysines mutated to alanine for crystallization; residues 32-223 are in the final model; also called KLHL3^BTB-BACK (SER); source: E. coli BL21 DE3 Codon+, purified (NiNTA, Superdex S75 SEC)
# B4: KLHL3^BTB-BACK A77E (PHAII mutation) (domain or fragment, human, UniProt Q9UH77 27-276, looked up)
# chain: B1 chain with A51E
# notes: KLHL3, human, residues 27-276, PHAII patient mutation A77E introduced into the wild-type KLHL3^BTB-BACK plasmid; PDB 4HXI holds the same limits with K87A/K89A/K90A and without A77E; source: E. coli BL21 DE3 Codon+, purified (NiNTA, Superdex S75 SEC)
# B5: KLHL3^BTB-BACK M78V (PHAII mutation) (domain or fragment, human, UniProt Q9UH77 27-276, looked up)
# chain: B1 chain with M52V
# notes: KLHL3, human, residues 27-276, PHAII patient mutation M78V introduced into the wild-type KLHL3^BTB-BACK plasmid; PDB 4HXI holds the same limits with K87A/K89A/K90A and without M78V; source: E. coli BL21 DE3 Codon+, purified (NiNTA, Superdex S75 SEC)
# B6: KLHL3^BTB-BACK E85A (PHAII mutation) (domain or fragment, human, UniProt Q9UH77 27-276, looked up)
# chain: B1 chain with E59A
# notes: KLHL3, human, residues 27-276, PHAII patient mutation E85A introduced into the wild-type KLHL3^BTB-BACK plasmid; PDB 4HXI holds the same limits with K87A/K89A/K90A and without E85A; source: E. coli BL21 DE3 Codon+, purified (NiNTA, Superdex S75 SEC)
# Key:
# [1] = target: the molecule itself; assay: SEC; Superdex S75 in buffer A (20 mM Tris pH 7.5, 150 mM NaCl, 1 mM TCEP, 10% v/v glycerol), elution monitored at 280 nm; proteins alone and an equimolar mixture
# [2] = target: T1, Cul3^NTD, N-terminal domain of Cullin3 residues 20-381 with stabilizing mutations I342R/L346D (human, UniProt Q13618 20-381, I342R | L346D); assay: ITC; VP-ITC at 25°C in buffer A; KLHL3^BTB-BACK at 150 µM injected into Cul3^NTD at 15 µM; one-site binding model; a single titration for each protein; conditions: both partners purified
# T1 construct: residues 26-379 are in the final model; also called Cul3 N-terminal domain; source: E. coli BL21 DE3 Codon+, purified (NiNTA, TEV cleavage, Superdex S75 SEC); not shown: thioredoxin, N-terminal, cleaved; His tag, N-terminal, cleaved
# T1 sequence (Q13618 20-381 I342R/L346D): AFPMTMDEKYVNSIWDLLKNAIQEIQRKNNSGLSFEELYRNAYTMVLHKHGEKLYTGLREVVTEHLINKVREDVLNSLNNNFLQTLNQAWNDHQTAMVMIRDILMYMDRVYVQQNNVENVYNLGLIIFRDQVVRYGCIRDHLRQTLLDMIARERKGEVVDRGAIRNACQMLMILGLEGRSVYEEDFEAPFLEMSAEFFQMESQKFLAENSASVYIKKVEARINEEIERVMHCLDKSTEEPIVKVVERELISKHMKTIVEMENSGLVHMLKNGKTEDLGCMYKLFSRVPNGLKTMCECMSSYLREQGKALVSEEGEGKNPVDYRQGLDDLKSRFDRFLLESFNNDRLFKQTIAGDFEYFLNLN
# [3] = target: the molecule itself; assay: crystal structure; KLHL3^BTB-BACK (SER version) and Cul3^NTD mixed 1:1 at 10 mg/ml total; hanging drop, 0.1 M sodium tartrate, 17% w/v PEG 3350, room temperature; 3.5 Å; one chain of each in the asymmetric unit, BTB homodimer by a crystallographic 2-fold
# [4] = target: T1, Cul3^NTD, N-terminal domain of Cullin3 …; assay: as above; conditions: both partners purified
Binder,stoichiometry N [1],Kd [2],further results
B1,2,108 nM,stoichiometry N [2]: 1
B2,2,4100 nM,–
B3,–,–,binding result [3]: binds; binding result [4]: binds
B4,2,–,–
B5,2,–,–
B6,2,–,–
